# Data reported in paper PMC5419741.
# Columns and labels:
# [1] = tested on: LARP1 DM15 E886 mutant (Homo sapiens), Q6PKG0-3; experiment: EMSA; conditions: 5' m7Gppp cap; Competition assays: 20 mM Tris pH 8, 150 mM NaCl, 10% glycerol, 1 mM DTT, 0.5 ug BSA, 0.5 ug tRNA, 30 min on ice, native gel; EMSA as in Lahr et al. 2015 with …
# [2] = tested on: LARP1 DM15 Y922 mutant (Homo sapiens), Q6PKG0-3; experiment: EMSA; conditions: 5' m7Gppp cap; Competition assays: 20 mM Tris pH 8, 150 mM NaCl, 10% glycerol, 1 mM DTT, 0.5 ug BSA, 0.5 ug tRNA, 30 min on ice, native gel; EMSA as in Lahr et al. 2015 with …
sequence,measurement,setting,value
CCUCUUUUCCGUGGCGCCUCGGAGGCGUUCAGCUGCUUCAAG [m7Gppp-RPS6 42mer (capped TOP)],Kd,[1],8 µM
same,Kd,[2],2.6 µM
